Measured values taken from US20180021429A1, “ANTICANCER AGENTS OR ANTIMETASTATIC AGENTS USING FSTL1 AND COMBINATION DRUG THEREOF” (PHARMA FOODS INTERNATIONAL CO., LTD., priority 2015, published 2018).
Numbering of substitutions follows the chain as printed. “Also recorded” adds a separate entry of the source.

T1: FSTL1 (Homo sapiens, UniProt Q12841)
T1 sequence (Q12841 21-308): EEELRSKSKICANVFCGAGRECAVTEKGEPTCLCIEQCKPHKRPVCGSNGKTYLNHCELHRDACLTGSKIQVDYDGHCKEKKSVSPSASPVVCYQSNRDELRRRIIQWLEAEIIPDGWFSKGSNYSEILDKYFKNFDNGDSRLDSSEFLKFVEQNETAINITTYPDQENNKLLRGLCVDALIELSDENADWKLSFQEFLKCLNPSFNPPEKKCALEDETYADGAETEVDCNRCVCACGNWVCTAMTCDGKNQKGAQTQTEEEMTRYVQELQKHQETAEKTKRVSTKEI

B1: #5-3: chicken-mouse chimeric anti-FSTL1 antibody clone; variable regions SEQ ID NO: 767 (light), 769 (heavy) (antibody, V domains shown)
VH: AVTLDESGGGLQTPGGALSLVCKGSGFSFSSFNMFWVRQAPGKGLEWVAGIGKDGVPKYGAAVDGRATISKDNGQSTMRLQLNNLRAEDTGTYFCAKAAGGCSYDWCGIYAGDIDTWGHGTEVIVSS
VL: ASTQPSSVSANPGETVKITCSGGSGYYYGWYQQKSPGSVPVTVIYNNNNRPSDIPSRFSGSKSGSTGTLTITGVRAEDEAVYYCGGYDNSGTGIFGAGTTLTVL
modifications: mouse constant regions
B2: #8-4: chicken-mouse chimeric anti-FSTL1 antibody clone; variable regions SEQ ID NO: 795 (light), 797 (heavy) (antibody, V domains shown)
VH: AVTLDESGGGLQTPGGGLSLVCKGSGFTLSSFNMFWVRQAPGKGLEWVAGVGKDGGTAYGAAVDGRATISRDSGQSTVRLQLNNLRAEDTGTYFCAKAAGGCSYSWCGAYVGDLDAWGHGTEVIVSS
VL: B1 VL with T3S, V39A, N48D, R50K, R75Q, A76V, Y83F
modifications: mouse constant regions
B3: #5-8: chicken-mouse chimeric anti-FSTL1 antibody clone; variable regions SEQ ID NO: 771 (light), 773 (heavy) (antibody, V domains shown)
VH: B1 VH with A17G, S28T, A61T, A111T
VL: ASTQPSSVSANPGEAVKITCSGGSGSYYGWYQQKSPGSAPVTVIYNNNQRPSDIPSRFSGSKSGSTATLTITGVQAEDEAVYFCGGYDSSTGHGGIFGAGTTLTVL
modifications: mouse constant regions
B4: #8-7: chicken-mouse chimeric anti-FSTL1 antibody clone; variable regions SEQ ID NO: 799 (light), 801 (heavy) (antibody, V domains shown)
VH: B1 VH with A17G, S28T, M78L
VL: B3 VL
modifications: mouse constant regions
B5: #6-55: chicken-mouse chimeric anti-FSTL1 antibody clone; variable regions SEQ ID NO: 783 (light), 785 (heavy) (antibody, V domains shown)
VH: AVTLDESGGGLQTPGGALSLVCKGSGFTFTSVTMQWVRQAPGKGLEWVASVCSGSSTYYAPAVKGRATISRDNGQSTVRLQLSNLRPEDTGTYYCAKIAGRARWSCTSAAYNIDAWGHGTEVIVSS
VL: ASTQPSSVSAIPGETVKITCSGGGNNYGWYQQRSPGSAPVTVIYYNDNRPSNIPSRFSGSTSGSTSTLTITGVQADDEAIYYCGSWDSNTDSGIFGAGTTLTVL
modifications: mouse constant regions
B6: #5-2: chicken-mouse chimeric anti-FSTL1 antibody clone; variable regions SEQ ID NO: 763 (light), 765 (heavy) (antibody, V domains shown)
VH: B2 VH with L29F, A58G, R71K, S73N, V78L, F94Y, S105G, A109S, L114I
VL: B3 VL
modifications: mouse constant regions

Molecular target: T1, FSTL1
Assay: Inhibition of activation of tumor cells by FSTL1, RANKL- and CCR2-positive cells in human pancreatic cancer cell line Panc1 (Examples 5, 7, 9, 10, 11)
Assay type: cell-based
Parameters: purchased R&D Systems, Inc. 1694-FN-050
Conditions: for inhibitory activity against the expansion of RANKL-positive cells and CCR2-positive cells: FSTL1 50 ng/mL
Method: It is known that tumor cells activated by stimulation with FSTL1 highly express molecule groups promoting bone metastasis and increase metastatic invasive capacity (Cancer Research 73: 6185, 2013). Thus, 2×10^7 cells/well of a human pancreatic cancer cell line Panc1 were suspended in 1 mL/well of D-MEM medium (GIBCO/Thermo Fisher Scientific Inc. Cat. No. C11885500BT) containing 10% fetal bovine serum, supplemented with 50 ng/mL (final concentration) of FSTL1 (R&D Systems, Inc.) and 10 μg/mL of the anti-FSTL1 antibody (#5-2, #5-8, #5-10, #5-43, #6-55, or #7-34) or its isotype mouse IgG (anti-DNP antibody) as a control antibody “Control”, and cultured under stimulation (6-well plate). 3 days thereafter, the number of cells was counted while the cells were stained with a PE-labeled anti-RANKL antibody (eBioscience Cat. No. 12-6619) and a PE-labeled anti-CCR2 antibody (R&D Systems, Inc. Cat. No. FAB151P) in order to examine the expression of markers indicating bone metastatic properties, and the contents of RANKL-positive cells and CCR2-positive cells were analyzed by flow cytometry using FACScan (Becton, Dickinson and Company) to calculate the numbers of cells per culture. […] Therefore, in Examples below, judgment was made with the number of cells as an index.
(§1) In the same way as in Example 5, a human pancreatic cancer cell line Panc1 was supplemented with 50 ng/mL (final concentration) of FSTL1 (R&D Systems, Inc.) and 10 μg/mL of the anti-FSTL1 antibody (the same clones as in Example 6) or a control antibody and cultured under stimulation. 3 days thereafter, the number of cells was counted while the cells were stained with a PE-labeled anti-RANKL antibody and a PE-labeled anti-CCR2 antibody, and the contents of RANKL-positive cells and CCR2-positive cells were analyzed by flow cytometry using FACScan (Becton, Dickinson and Company) to calculate the numbers of cells per culture (FIG. 67B).
as §1, with “20” for “50”, “FSTL1” for “FSTL1 (R&D Systems, Inc.)”, “(#5-2, #5-8, or #6-55)” for “(the same clones as in Example 6)”, “68B).” for “67B).”
as §1, with “FSTL1” for “FSTL1 (R&D Systems, Inc.)”, “(#5-2, #5-3, #6-55, #7-34, #8-1, #8-4, #8-7, or #8-8)” for “(the same clones as in Example 6)”, “culture.” for “culture (FIG. 67B).”
In the same way as in Example 5, a human pancreatic cancer cell line Panc1 was supplemented with 50 ng/mL (final concentration) of FSTL1 and 10 μg/mL of the anti-FSTL1 antibody (#6-55) or a control antibody and cultured under stimulation. 3 days thereafter, the number of cells was counted while the cells were stained with a PE-labeled anti-RANKL antibody and a PE-labeled anti-CCR2 antibody, and the contents of RANKL-positive cells and CCR2-positive cells were analyzed by flow cytometry using FACScan (Becton, Dickinson and Company) to calculate the numbers of cells per culture.

[1] = Example 7, antibody 10 μg/mL, 3 days
[2] = Example 10, antibody 10 μg/mL, 3 days, including newly obtained clones

| Molecule | inhibitory activity against the expansion of RANKL-positive cells and CCR2-positive cells [1] | inhibitory activity against the expansion of RANKL-positive cells and CCR2-positive cells [2] | also measured |
| --- | --- | --- | --- |
| B1 | higher inhibitory activity |  |  |
| B2 |  | higher inhibitory activity; also recorded: high inhibitory activity |  |
| B3 | higher inhibitory activity |  |  |
| B4 |  | higher inhibitory activity; also recorded: high inhibitory activity |  |
| B5 |  | higher inhibitory activity; also recorded: high inhibitory activity | inhibition of cell induction of RANKL-positive cells and CCR2-positive cells (dose dependence test) (Example 11, figure legend): strongly inhibited the cell induction of both RANKL-positive cells and CCR2-positive cells; inhibitory activity against the expansion of RANKL-positive cells and CCR2-positive cells (Example 11, all tested doses 5, 10 and 20 μg/mL, dose dependence not confirmed): ~100% |
| B6 |  | higher inhibitory activity; also recorded: high inhibitory activity |  |
